T1: mouse Ang2 (Accession # NP-031452) (R&D Systems) (mouse, UniProt O35608 19-496)
T1 construct: Bought protein coated on the ELISA plate; also called mAng2
T1 sequence (looked up): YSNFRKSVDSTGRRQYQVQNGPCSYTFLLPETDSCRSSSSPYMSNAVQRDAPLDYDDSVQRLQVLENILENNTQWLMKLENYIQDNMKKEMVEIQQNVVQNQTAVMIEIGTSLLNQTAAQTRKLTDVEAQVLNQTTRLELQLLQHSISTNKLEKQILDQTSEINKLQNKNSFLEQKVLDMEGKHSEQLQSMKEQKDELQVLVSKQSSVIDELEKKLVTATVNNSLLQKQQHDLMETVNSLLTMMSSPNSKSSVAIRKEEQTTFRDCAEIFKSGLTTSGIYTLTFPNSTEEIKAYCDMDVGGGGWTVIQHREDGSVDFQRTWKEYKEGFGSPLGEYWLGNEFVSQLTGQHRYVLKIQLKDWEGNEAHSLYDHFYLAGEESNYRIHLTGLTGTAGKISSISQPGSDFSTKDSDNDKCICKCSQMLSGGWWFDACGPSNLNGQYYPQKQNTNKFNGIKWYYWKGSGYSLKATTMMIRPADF

T2: Ang2 mutant F469 (full-length Ang2) (human, UniProt O15123 19-496, limits assumed)
T2 sequence: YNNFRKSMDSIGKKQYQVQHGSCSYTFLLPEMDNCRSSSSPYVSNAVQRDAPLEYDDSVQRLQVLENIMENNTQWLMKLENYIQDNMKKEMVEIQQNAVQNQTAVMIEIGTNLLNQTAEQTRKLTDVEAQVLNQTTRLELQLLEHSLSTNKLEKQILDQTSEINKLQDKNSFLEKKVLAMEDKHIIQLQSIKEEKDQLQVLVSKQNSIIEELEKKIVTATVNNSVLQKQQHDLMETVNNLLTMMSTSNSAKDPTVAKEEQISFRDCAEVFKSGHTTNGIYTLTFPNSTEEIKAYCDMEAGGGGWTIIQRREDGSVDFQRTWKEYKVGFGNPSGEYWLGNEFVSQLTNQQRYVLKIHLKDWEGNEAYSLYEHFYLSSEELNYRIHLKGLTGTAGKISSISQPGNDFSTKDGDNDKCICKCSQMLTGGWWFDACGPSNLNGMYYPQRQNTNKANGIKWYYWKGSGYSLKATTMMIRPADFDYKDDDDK

T3: Ang2 mutant I434 (full-length Ang2) (human, UniProt O15123 19-496, limits assumed)
T3 sequence: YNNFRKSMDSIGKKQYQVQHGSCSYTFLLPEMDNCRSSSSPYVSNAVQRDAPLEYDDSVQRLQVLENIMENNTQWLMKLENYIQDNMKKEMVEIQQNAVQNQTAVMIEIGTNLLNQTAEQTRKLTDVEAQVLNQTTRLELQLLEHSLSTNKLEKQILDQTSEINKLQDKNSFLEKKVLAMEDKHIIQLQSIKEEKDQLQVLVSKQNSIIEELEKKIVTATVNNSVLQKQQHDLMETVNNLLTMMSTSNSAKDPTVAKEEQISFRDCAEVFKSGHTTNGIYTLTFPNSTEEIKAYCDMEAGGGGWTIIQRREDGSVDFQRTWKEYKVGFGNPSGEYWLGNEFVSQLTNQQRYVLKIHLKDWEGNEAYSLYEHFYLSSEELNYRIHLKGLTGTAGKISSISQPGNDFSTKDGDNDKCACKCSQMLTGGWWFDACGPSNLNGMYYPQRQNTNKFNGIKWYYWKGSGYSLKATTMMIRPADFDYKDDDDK


What was measured:
[1] = target: T1, mouse Ang2 (Accession # NP-031452) (R&D …); assay: ELISA on coated mouse Ang2; 50% binding concentration, which the filing calls Kd
Description: An ELISA was conducted to measure the binding affinity of the antibodies prepared in Example 2 to mouse Ang2(mAng2). MaxiSorp™ flat-bottom plate (Nunc) of 96-well was coated with 5-20 μg/ml of mouse Ang2 (Mouse Ang2; Accession # NP_{—}031452) (R&D Systems). Thereafter, the plate was washed five times with 0.05% (v/v) Tween-20-containing PBS (PBST) and then blocked with 1% (v/v) BSA (bovine serum albumin; Sigma)-containing PBS at a room temperature for 2 hour. Each of the anti-Ang2 antibodies was added to each well of the plate at various concentrations, and the plate was allowed to react at a room temperature for 2 hours.
Thereafter, the plate was washed five times with PBST. Then, a HRP-conjugated anti-mouse IgG antibody (Santacruz) diluted in 1% (v/v) BSA-containing PBS at a ratio of 1:1,000 (v/v) was added in an amount of 50 μl to each well to react at a room temperature for 1 hour and then, the plate was washed five times with PBST. Lastly, 100 μl of TMB substrate (Cell Signaling) was added to each well of the plate to induce color development for 3 min. and then, the reaction was ceased by the addition of 100 μl of Stop solution (Cell Signaling) and OD450 values were measured on a plate reader (Molecular Devices).
From the obtained results, 50% binding concentration (Kd) of the anti-Ang2 antibody to Ang2 protein is obtained, thereby measuring the binding intensity of each of the anti-Ang2 antibodies to Ang2.

[2] = target: T1, mouse Ang2 (Accession # NP-031452) (R&D …); assay: ELISA on coated mouse Ang2
[3] = target: T2, Ang2 mutant F469 (full-length Ang2); assay: ELISA; antibody coated, FLAG-tagged full-length Ang2 mutant, anti-FLAG-HRP detection
Description: (§1) A 96-well MaxiSorp™ flat-bottom plate (Nunc) was coated with 50 μl of each anti-Ang2 antibody (400 nM). After that, the plate was washed five times with 0.05% (v/v) Tween-20-containing PBS (PBST) and then blocked with 1% (v/v) BSA-containing PBS at a room temperature for 2 hours. S417, P419, N421, I434, D448, A449, P452, Y460, N467, K468, or F469 residue of Ang2 (SEQ ID NO: 27) was mutated (substituted) with alanine and tagged with FLAG (N-[…]-C; 1012 Da) and then 250 ng of them was each added to each well to the plate, which was allowed to react at a room temperature for 2 hours.
(§2) Thereafter, the plate was washed five times with 0.05% (v/v) Tween-20-containing PBS and then, an HRP-conjugated anti-FLAG antibody (SIGMA) diluted in 1% (v/v) BSA-containing PBS at 1:5,000 ratio (v/v) was added in the amount of 50 μl to each well to react at a room temperature for 1 hour, followed by washing five times with 0.1% (v/v) Tween-20-containing PBS.
(§3) Finally, 100 μl of TMB substrate (cell signal) was added to each well of the plate to induce color development for 3 minutes and then, the reaction was ceased by the addition of 100 μl of stop solution (Cell signaling) and OD450 values were measured on a plate reader (Molecular Devices). By comparing binding intensity to mutated Ang2 to binding intensity to non-mutated (native) Ang2, each epitope for the Ang2 antibodies was identified.

[4] = target: T3, Ang2 mutant I434 (full-length Ang2); assay: as above
Description: as §1, §2, §3

Kd [1] | binding result [2] | Binding (%) (mutant Ang2 / native Ang2) [3] | Binding (%) (mutant Ang2 / native Ang2) [4] | Binder
130 nM | – | – | – | SAIT-ANG2-AB-m3E2 (antibody, V domains shown, also called hybridoma KCLRF-BP-00305) VH: EVQLQQSGAELVKPGASVKLSCTASGFNIKDPYIHWVKQRPEQGLEWIGRIDPANGNTKYDPKFQGKATITADTSSNTAYLQLSSLTSEDTAVYYCVRRWDGGGFDYWGQGTSVTVSS VL: DIQMTQTTSSLSASLGDRVTISCRASQDISNYLNWYQQKPDGTVKLLIYYTSRLHSGVPSRFSGSGSGTDYSLTITNLEQEDIATYFCQQGNTLPWTFGGGTKLEIK
– | no binding | – | – | SAIT-ANG2-AB-m1A10 (antibody, V domains shown, also called hybridoma KCLRF-BP-00306) VH: QVQLQQSGAELMKPGASVKISCKATDYTFSSYWLEWLIQRPGHGLEWIGEILPGSGSTNYNEKFRGKATFTEDTSSNTAYMQLSSLTSEDSAVYYCARGNHNSYYYAMDYWGQGTSVTVSS VL: DIVLTQSPASLAVSLGQRATISCRASESVDSYGNSFMHWYQQKPGQPPKLLIYRASNLDSGIPARFSGSGSRTDFTLTINPVEADDVATYYCQQSNEDPLTFGAGTKLELK
141 nM | – | 41.9% | 137% | SAIT-ANG2-AB-m8D3 (antibody, V domains shown, also called hybridoma KCLRF-BP-00308) VH: EVQLQQSGPELVKPGDSVKMSCKASGYTFTDYYMKWVRQSHGKSLQWVGEINPKNGDTFYNQIFKGKATLTVDKSSSTAYMQLTSLTSEDSAVYYCTRENDYDVGFFDYWGQGTSVTVSS VL: TIVMTQTPKFLLVSAGDRITITCKASQSVSNDVAWYQQKPGQSPKLLIYYASNRYPGVPDRFTGSGYGTDFTFTISTVQAEDLAVYFCQQDYTSPWTFGGGTELEIK
